In US20050137135A1 (priority 2002, published 2005):
Ends that are not written are not given here.

Assays:
[1] = target: T1, DPIV (dipeptidyl peptidase IV) (Sus scrofa, UniProt P22411); experiment: Determination of DPIV resistance by MALDI-TOF mass spectrometry; format: in vitro ADME; conditions: purified kidney DPIV, 0.04 M Tris buffer pH 7.6, up to 24 h, MALDI-TOF MS; read-out: half life after incubation with DP IV
T1 construct: The hydrolysis of peptide analogues by purified kidney DPIV was studied as described previously [12]; from tissue; host or cells: kidney
Protocol: The hydrolysis of peptide analogues by purified kidney DPIV was studied as described previously. […] Samples were removed from the incubation mixture and prepared for MALDI-TOF mass spectrometry, as described in Pauly, […]., Pederson, R. A., and Demuth, H. U.

INS-1 (832/13) cells = experiment: Glucose dependent β-cell proliferation (CYQUANT cell quantification); format: cell-based; conditions: separate experiment, 100 nM, n=4
Protocol: Cell passages 45-60 were used.
Cells were seeded into 96-well plates (5×10^4 cells/well) prior to experimentation. […] Thereafter, cells were washed with KRBH (115 mM NaCl, 4.7 mM KCl, 1.2 mM KH2PO4, 10 mM NaHCO3, 1.28 mM CaCl2, 1.2 mM MgSO4 containing 10 mM HEPES and 0.1% bovine serum albumin, pH 7.4) and frozen at −70° C. until assayed. Cells were quantified using the CYQUANT™ assay system (Molecular Probes, Eugene, Oreg., USA) according to the manufacturers' protocol. Final cell numbers were always greater than the initial number plated in assessing cellular proliferation.

[2] = target: T2, rat pancreatic islet (wild type) GIP-receptor stably expressed on CHO-K1 cells (rat) (UniProt P43219); experiment: cell-based or functional assay
T2 sequence (looked up): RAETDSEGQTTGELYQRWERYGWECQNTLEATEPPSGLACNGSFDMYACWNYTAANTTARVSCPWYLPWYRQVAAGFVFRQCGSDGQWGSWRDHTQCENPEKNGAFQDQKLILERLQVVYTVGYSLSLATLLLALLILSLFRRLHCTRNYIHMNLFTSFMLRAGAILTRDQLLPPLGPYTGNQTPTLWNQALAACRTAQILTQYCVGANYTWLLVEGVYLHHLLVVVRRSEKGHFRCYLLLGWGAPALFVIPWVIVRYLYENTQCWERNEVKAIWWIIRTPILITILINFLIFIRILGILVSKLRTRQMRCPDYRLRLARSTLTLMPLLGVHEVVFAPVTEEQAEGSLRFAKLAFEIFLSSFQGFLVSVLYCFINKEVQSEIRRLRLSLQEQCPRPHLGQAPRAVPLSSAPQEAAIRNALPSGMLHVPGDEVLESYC

[3] = target: T2, rat pancreatic islet (wild type) GIP-receptor stably expressed on CHO-K1 cells (rat); experiment: displacement of 125I-GIP from intact CHO-K1 cells expressing rat GIP receptor, 10 µM peptide
[4] = target: T3, rat pancreatic islet (wild type) GIP-receptor stably expressed on CHO-K1 cells (rat, UniProt P43219 19-455); experiment: cell-based or functional assay
T3 sequence (looked up): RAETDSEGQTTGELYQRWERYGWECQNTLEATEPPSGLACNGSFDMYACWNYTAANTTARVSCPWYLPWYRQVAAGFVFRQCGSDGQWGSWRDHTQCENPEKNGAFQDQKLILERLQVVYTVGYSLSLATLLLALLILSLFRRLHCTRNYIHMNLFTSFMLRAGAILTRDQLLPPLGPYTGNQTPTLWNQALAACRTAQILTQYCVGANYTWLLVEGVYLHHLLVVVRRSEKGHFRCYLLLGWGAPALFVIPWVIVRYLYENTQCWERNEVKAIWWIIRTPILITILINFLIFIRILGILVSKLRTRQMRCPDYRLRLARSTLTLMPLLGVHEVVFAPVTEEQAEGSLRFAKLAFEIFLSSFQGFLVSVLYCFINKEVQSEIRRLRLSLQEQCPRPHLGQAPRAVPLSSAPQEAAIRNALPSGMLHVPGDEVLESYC

[5] = target: T3, rat pancreatic islet (wild type) …; experiment: displacement of 125I-GIP from intact CHO-K1 cells expressing rat GIP receptor, 10 µM peptide
Protocol: (§1) Cells were cultured in DMEM/F12, supplemented with 10% newborn calf serum, 50 units/ml penicillin G, and 50 μg/ml streptomycin (Culture media and antibiotics from Gibco BRL, Life Technologies). Cells were grown in 75 cm² flasks until 80-90% confluent, when they were split and seeded onto 24 well plates at a density of 50,000 cells/well. Experiments were carried out 48 h later.
(§2) Binding studies using ¹²⁵I-labeled spGIP₁₋₄₂, purified by high performance liquid chromatography (HPLC), were performed essentially as described previously-[21]. wtGIP-R1 Cells (1-5×10⁵/well) were washed twice at 4° C. in binding buffer (BB), consisting of DMEM/F12 (GIBCO), 15 mM HEPES, 0.1% bovine serum albumin (BSA), 1% Trasylol (aprotinin; Bayer), pH 7.4. They were incubated for 12-16 h at 4° C. with ¹²⁵I-spGIP (50,000 cpm) in the presence or absence of unlabeled GIP₁₋₄₂ or analogue. Following incubation, cells were washed twice with ice cold buffer, solubilized with 0.1 M NaOH (1 ml), and transferred to culture tubes for counting of cell-associated radioactivity. Nonspecific binding was defined as that measured in the presence of 1 μM GIP₁₋₄₂ or GIP₁₋₃₀, and specific binding expressed as % of binding in the absence of competitor (% B/Bo).

[6] = target: T3, rat pancreatic islet (wild type) …; experiment: competition with 125I-GIP on intact CHO-K1 cells expressing rat GIP receptor
Protocol: as §1, §2

T1 sequence (P22411 whole entry): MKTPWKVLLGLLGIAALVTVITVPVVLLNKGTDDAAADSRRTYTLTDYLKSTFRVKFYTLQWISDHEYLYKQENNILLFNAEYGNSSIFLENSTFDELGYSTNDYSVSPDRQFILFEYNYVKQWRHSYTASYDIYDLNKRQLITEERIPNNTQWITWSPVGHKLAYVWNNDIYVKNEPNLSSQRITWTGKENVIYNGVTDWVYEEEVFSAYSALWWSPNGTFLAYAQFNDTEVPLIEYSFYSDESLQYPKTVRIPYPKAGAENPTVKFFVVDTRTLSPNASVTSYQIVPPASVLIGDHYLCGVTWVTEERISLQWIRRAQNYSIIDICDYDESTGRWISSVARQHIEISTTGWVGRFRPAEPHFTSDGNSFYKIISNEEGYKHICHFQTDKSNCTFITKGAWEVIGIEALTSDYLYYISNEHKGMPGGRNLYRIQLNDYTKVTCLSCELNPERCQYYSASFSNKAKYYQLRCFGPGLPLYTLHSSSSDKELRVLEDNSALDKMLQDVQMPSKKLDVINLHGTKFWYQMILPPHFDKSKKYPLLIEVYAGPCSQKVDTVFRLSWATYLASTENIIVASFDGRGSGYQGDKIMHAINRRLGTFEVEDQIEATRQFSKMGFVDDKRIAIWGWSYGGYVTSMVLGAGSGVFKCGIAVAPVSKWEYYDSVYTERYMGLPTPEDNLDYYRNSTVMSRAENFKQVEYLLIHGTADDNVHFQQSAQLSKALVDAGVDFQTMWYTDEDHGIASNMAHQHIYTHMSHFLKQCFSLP

Molecule | cAMP Production (Fold Basal) at 10 µM [4] [fold basal] | cAMP Production (Fold Basal) at 20 µM [4] [fold basal] | % Displacement at 10 µM [5] [%] | also measured
YPEGTF-NH2 [Pro^2-GIP1-6a] | – | – | – | half-life [1]: > 0.125 h
YSEGTFISDYSIAMDKIRQQDFVNWLLAQK-NH2 [Ser^2-GIP1-30a] | – | – | – | half-life [1]: 2.28 ± 0.205 h
YVEGTFISDYSIAMDKIRQQDFVNWLLAQK-NH2 [Val^2-GIP1-30a] | – | – | – | half-life [1]: 4.97 ± 1.54 h
glucagon-like peptide-17-36 [GLP-1] | – | – | – | cell growth, % of that measured in the presence of 5.5 mM glucose (INS-1 (832/13) cells): 129±4%
YAEGTF-NH2 (peptide, UniProt P09681 52-57, looked up) [GIP 1-6NH2] | – | – | – | cAMP Production (Fold Basal) at 10 µM [2]: 1.27 fold basal; cAMP Production (Fold Basal) at 20 µM [2]: 1.08 fold basal; % Displacement at 10 µM [3]: -3.6%
YAEGTFISDYSIA-OH (peptide, UniProt P09681 52-64, looked up) [GIP 1-13OH] | – | – | – | cAMP Production (Fold Basal) at 10 µM [2]: 1.03 fold basal; cAMP Production (Fold Basal) at 20 µM [2]: 1.15 fold basal; % Displacement at 10 µM [3]: -0.2%
YAEGTFISDYSIAM-OH (peptide, UniProt P09681 52-65, looked up, range 1-14; free acid form; also called native GIP (1-14)) [GIP 1-14OH] | 88.9 | 85.2 | 51.3 | –
YAEGTFISDYSIAM-NH2 (peptide, UniProt P09681 52-65, looked up, range 1-14) [GIP 1-14NH2] | 75.4 | 88.3 | 27.9 | –
DKIRQQDFVNWLLAQK-NH2 (peptide, UniProt P01281 15-30, looked up, range 15-30; also called GIP15-30a) [GIP 15-30NH2] | 1.24 | 1.01 | 82.7 | IC50 [6]: 1400 nM
IRQQDFVNWLLAQK-NH2 (peptide, UniProt P01281 17-30, looked up, range 17-30; also called GIP17-30a) [GIP 17-30NH2] | 1.13 | 1.12 | 81.9 | IC50 [6]: 1540 nM
QQDFVNWLLAQK-NH2 (peptide, UniProt P09681 70-81, looked up, range 19-30; also called GIP19-30a) [GIP 19-30NH2] | 20.1 | 45 | 52.3 | –
YAEGTFISDYSIA-NH2 (peptide, UniProt P09681 52-64, looked up, range 1-13) [GIP 1-13NH2] | 6.51 | 15.7 | 5 | –
